Here are results for one molecule from US20240059799A1 (Pfizer, published 2024).

The target of the experiment is T1, recombinant human TL1A (human, UniProt O95150 71-251).
T1 construct: homotrimer; biotinylated for SPR capture; the ELISA paragraphs say only 'recombinant TL1A'; also called TNFSF15
T1 chain: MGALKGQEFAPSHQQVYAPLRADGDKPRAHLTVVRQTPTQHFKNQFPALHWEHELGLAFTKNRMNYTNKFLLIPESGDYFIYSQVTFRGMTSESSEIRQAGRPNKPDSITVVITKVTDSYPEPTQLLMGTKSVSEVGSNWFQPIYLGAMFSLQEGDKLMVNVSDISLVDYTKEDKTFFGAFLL
Put plainly: SPR, antibody injected over captured biotinylated human TL1A. The method, then: An SPR assay was also used to determine whether the [xTL1A] bivalent antibody variants could bind recombinant human TL1A. […] A high concentration (1 μM) of [xTL1A] variant antibodies were injected in assay buffer (HBS-EP+, pH 7.4, Cytiva, product number BR100669).

B1: [xTL1A]-0349 bivalent antibody (antibody, human IgG1, kappa, V domains shown)
VH: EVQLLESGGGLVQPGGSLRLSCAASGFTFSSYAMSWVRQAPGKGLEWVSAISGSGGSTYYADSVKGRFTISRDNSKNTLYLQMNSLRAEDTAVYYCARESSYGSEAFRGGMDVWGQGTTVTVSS
VL: DIQMTQSPSSLSASVGDRVTITCRASQSVSSYLAWYQQKPGKAPKLLIYDASNRATGVPSRFSGSGSGTDFTLTISSLQPEDFATYYCQQRSNWPWTFGQGTKVEIKR
notes: disabled (null) bivalent IgG1/kappa
In the case of B1, the binding result is “no binding (tested: 1 µM)”.
